# Tested on: Cxcl1 mRNA from PECs
# Experiment: PECs stimulated with supernatant of dead SL4 cells containing antibody, Cxcl1 mRNA by RT-qPCR
# Format: cell-based, mouse
# Conditions: PECs stimulated 2 hours with culture supernatant of SL4 cells containing 55F3, vs control IgG, FIG. 12(b)
# Description: In FIG. 12(b), PECs (2×10^5 cells) were stimulated with a supernatant of dead SL4 cells comprising the 55F3 antibody or control IgG. After the stimulation for 2 hours, the expressed Cxcl1 mRNA was quantified by RT-qPCR. n=3, and Sup: culture supernatant. In FIG. 12(c), TCTP WT SL4 cells or TCTP KO SL4 cells ([…]) were subcutaneously transplanted into C57BL/6 mice. After the transplantation, DHA (50 mg/kg) or DMSO was intraperitoneally administered to the mice every day (n=6). In FIG. 12(d), (left view) the expression level of TCTP in the interstitial area of normal large intestinal tissues was compared with the expression level of TCTP in the interstitial area of colorectal cancer tissues. In FIG. 12(d), (right view) a normal colon crypt was compared with a neoplastic lesion. […] Spearman r: spearman correlation coefficients. *P<0.05, **P<0.01. Regarding FIG. 12(b), repeated measures one-way ANOVA with Dunnett's multiple comparisons test. Regarding FIG. 12(c), repeated measures one-way ANOVA with Tukey's multiple comparisons test. Regarding FIG. 12(d), unpaired two-sided Student's t-test. NS indicates “no significant difference.” The data are shown as a mean value ±[…] (s.e.m.).
# RAW264.7 cells, the mouse melanoma cell line B16F10 cells, the mouse fibrosarcoma cell line Meth-A cells, and HEK293T cells were obtained from RIKEN BioResource Center (Japan). […]
molecule,measurement,value
"55F3: Mouse monoclonal antibody against human TCTP peptide SEQ ID NO: 25; CDRs SEQ ID NO: 1-6, VH SEQ ID NO: 19, VL SEQ ID NO: 22 (antibody, listed as Mus musculus) VH: MRVLILLWLFTAFPGILSDVQLQESGPGLVKPSQSLSLTCTATGYSIASDYAWNWIRQFPGNKLEWMGYINYSGSTGYNPSLKSRISITRDTSKNQFFLQLNSVTTEDTATYYCARFEAGYWGQGTTLTVSSAKTTPPSVYPLAPGSAAQTNSMVTLGCLVKGYFPEPVT VL: MDMRTPAQFLGILLLWFPGIKCDIKMTQSPSSMSASLGERVTITCKASQDINRYLSWFQQKPGKSPKTLIYRANRLVDGVPSRFSGSGSGQDYSLTISSLEYGDMGIYYCLQYNEFPLTFGAGTKLELKRADAAPTVSIFPPSSEQLTSGGASVVCFLN",expression of Cxcl1 mRNA from PECs,suppressed
